Experiment: soluble on expression in E. coli; label from the status in PepcDB or PDB records

Sequence | soluble on expression in E. coli
MGSDKIHHHHHHMELQDKYIRFDWAVKRLLRHKANFGVLEGFLTVLIGDEIHIVEILESEGNQQTENDKFNRVDIKALNSKNEIVIIEIQNTRELYYLERILYGVAKAITEHISLGETYYKVKKIYSISILYFDIGHGTDYLYHGQNIFKGVHTGDFLQVSTREKDAIVPRMPSEIYPEYFLIRVNEFNKVAVTPLEEWIEYLKTGIIRPDTTAPGLGEAREKLKYYSMTPQERHAYDEHLSALMIQNDVLDSAKLEGKIEGKIEGKIEGRLEGRAEGREEGREEGIKEGVLRNARRMKEKGFSTEDIMEITGLTFEEVSQL | not soluble
DALNRFHDQPLNETELLALMGEMEGKISGGIHYDNVAPCYLGGVQLMLEELGIISQEVPCFDEWYWVMAYPGIKVSTAEAREILPSQYRRQDIIAHGRHLAGFIHACHSGQPELAAKMIKDVIAEPYREKLLPGFANARQ | not soluble
MLLSVPLLLGLLGLAAADPAIYFKEQFLDGDAWTNRWVESKHKSDFGKFVLSSGKFYGDLEKDKGLQTSQDARFYALSAKFEPFSNKGQTLVVQFTVKHEQNIDCGGGYVKLFPSGLDQKDMHGDSEYNIMFGPDICGPGTKKVHVIFNYKGKNVLINKDIRCKDDEFTHLYTLIVRPDNTYEVKIDNSQVESGSLEDDWDFLPPKKIKDPDAAKPEDWDERAKIDDPTDSKPEDWDKPEHIPDPDAKKPEDWDEEMDGEWEPPVIQNPEYKGEWKPRQIDNPDYKGTWIHPEIDNPEYSPDANIYAYDSFAVLGLDLWQVKSGTIFDNFLITNDEAYAEEFGNETWGVTKAAEKQMKDKQDEEQRLKEEEEDKKRKEEEEAEDKEDDDDRDEDEDEEDEKEEDEEESPGQAKDEL | soluble
MRKRARIIYNPTSGKELFKRVLPDALIKLEKAGYETSAYATEKIGDATFEAERALESEYDLLIAAGGDGTLNEVVNGIAEQPNRPKLGVIPMGTVNDFGRALHLPSDIMGAIDVIIDGHTTKVDIGKMNNRYFINLAAGGKLTQVSYETPSKLKSIVGPFAYYIKGFEMLPQMKAVDVRIEYDDNIFQGEALLFLLGLTNSMAGFEKLVPDAKLDDGYFTLIIVEKANLAELGHIMTLASRGEHTKHPKVIYAKAKSINISSFTDMQLNVDGEYGGKLPANFLNLEQHIEIFTPKDVFNEELLENDTITDITPDKQ | not soluble
MKGTQMLALNKKCWDIVAPYFFQVDCLPKYGPYTASEDEIHLFDSIKGKKVLDIGCGSGHSLQYMAEHGAEELWGLDLSSTQIETAHETLQSWNPKLICGAMEEERDIPKGYFDIVYSIYALGWTSDLRKTLELIYSYVKPGGSFIFSWEHPVYSNLMYGTEEIAFSSSYHEETPITFETFKGEDVQATLYKRKMSTYINELNRVGFTIERIEEPLEHHHHHH | not soluble
SKEDCLPSSHVPISDSKSIQKSELLGLLKTYNCYHEGKSFQLRHREEEGTLIIEGLLNIAWGLRRPIRLQMQDDREQVHLPSTSWMPRRPSCPLKEPSPQNGNITAQGPSIQPVHKAESSTDSSGPLEEAEEAPQLMRTKSDASCMSQRRPKCRAPGEAQRIRRHRFSINGHFYNHKTSVFTPAYGSVTNVRVNSTMTTLQVLTLLLNKFRVEDGPSEFALYIVHESGERTKLKDCEYPLISRILHGPCEKIARIFLMEADLGVEVPHEVAQYIKFEMPVLDSFVEKLKEEEEREIIKLTMKFQALRLTMLQRLEQLVEAK | soluble
GMQKPHLLITSAGRRAKLVEYFVKEFKTGRVSTADCSPLASALYMADQHYIVPKIDEVEYIDHLLTLCQDEGVTALLTLIDPELGLLAQATERFQAIGVTVIVSPYAACELCFDKYTMYEYCLRQGIAHARTYATMASFEEALAAGEVQLPVFVKPRNGSASIEVRRVETVEEVEQLFSKNTDLIVQELLVGQELGVDAYVDLISGKVTSIFIKEKLTMRAGETDKSRSVLRDDVFELVEHVLDGSGLVGPLDFDLFDVAGTLYLSEINPRFGGGYPHAYECGVNFPAQLYRNLMHEINVPQIGQYLDDIYMLKHDTVTLISAAELQKIKR | soluble
MGSSHHHHHHSSGRENLYFQGMTLKAGIVGIGMIGSDHLRRLANTVSGVEVVAVCDIVAGRAQAALDKYAIEAKDYNDYHDLINDKDVEVVIITASNEAHADVAVAALNANKYVFCEKPLAVTAADCQRVIEAEQKNGKRMVQIGFMRRYDKGYVQLKNIIDSGEIGQPLMVHGRHYNASTVPEYKTPQAIYETLIHEIDVMHWLLNEDYKTVKVYFPRQSSLVTTLRDPQLVVMETTSGINIVVEVFVNCQYGYDIHCDVTGEKGMAELPTVASAAVRKAAKYSTDILVDWKQRFIDAYDIEFQDFFDRLNAGLPPAGPTSWDGYLAAVTADACVKSQETGNTEIVELPSKPDFYK | soluble
MGSDKIHHHHHHMKQLVELERSSLGPQEAPVRLALSPDAGSPRDPQWQGPSGGFAINGKFASQRITGVQRVGYELAVAFQHLFPHGTDLPLLVPPNARTDVVFPNAKVIGRRLKGSLWEQFSLPFATGRRTLLSLCNMGPLFVRRQVVMVHDVAIYDLPQNYSWKYRLWYRVALSLLKRNVRHIVTVSEFSKKRIVERLGIDASRISVVLNGVDHFEKISPDTAILSRLNLQKDGYVLAVGNLSVGKNLPRILTAVERLNDSHDWKFVVVGGCDLRVFNSGAKVGFDLSKNIVPAGFVSDGELRALYENAACFLFPSLYEGFGLPPLEAMSCGCPVIVSREASLPEVCGDAALYCDAYSVDDIVDKVTQMMADPAARETWRQRGREHARGFRWERSARQLLGILERELAGEVAPPVHAQSAQSDQSAPSRV | not soluble
MSLKFVTIRDIAREAGVSINTVSRALNDKPDINVETKKKVLEVADRLGYIRDATAVSLRYGLTRVIGVILEDSSNPFYSEVLKGIEMAAKKKKFNVIFMNTERSYELENEAIKTMIGRRVDGMIISPTQEKCDDIKLLSEKGIPFVVLGVHFDELNVPEIYTDDEKGGYLATKHLIEIGRRRILFLNGFTYKSVAKMRLNGYRKALKEFGLEYDKSLVHEIEEGYENAYNKVKELLKKGIKFDSIFCFNDVFAIGAIGALKEEGIKVPQDIAVVGYDDIYFSKFISPSLTTVKIDKILEGKLAFEMLHGILTKKTGKNVKNVLDVELIVRESTIDKIGEGHHHHHH | soluble
MGSDKIHHHHHHMNVHVAVQTQAHRLDSNTAAFARDVLDGLTKPQKELSPKYFYDDTGSELFVEITRLPEYYPTRTELGILRDRAAEIAALIPPDAAIVEFGAGATTKIRLLLAAHQVAAYVPVDISGDFIITQAEALQRDFPQLAVHPLAADFTKPFALPPAVRDLPKVGFFPGSTIGNFEPQEARRFLESARDILGRGARMIIGVDLEKDENVLVPAYDDAAGVTGKFNLNLLIRINRELGADFDLSAFAHRAIYNRDQHRIEMHLVSLRDQSVHLFGERIGFRAGESIHTENSYKYSLERFRALAQQAGWTPARCWTDADAMFSVHAIETNGSRV | not soluble
MGSDKIHHHHHHMSAQVQDLTPIKGVTYYYPPHDAVLVFKDGAAEIPYGGLPVPLLEEDYASLDGEPSYDAVGRGVYQTLRTNPDCIHCAAYATLLRDAYPHYLAELASHAIMLDSKDVEVPYIDRKIVSLKVLSLLEPDNAGLPLEIGRAYLDRGLRLSALHMSTVSIYRAEHFLRRALELTPEDGRALRLLGEVCYLLGKYEEAASCWLDTLDLADADEAERFRVRLARISEGRLPLIAPVDYLEAIGAAFTCFHTGDYEEAVAILQDVLMDGIFCAEFPIADIHCVIGKSFVQLDMPRYAEESFRAALQLDPAHEESLACLRKVTGEE | not soluble
MDAPRINKWLKPLSALYGVGVRLRNYLFDKNVLISNSFDIPIVCVGNITIGGTGKTPHVEYLIRLLHPRYRVAVVSRGYKRKTKGMIVATEGSTAWDIGDEPRQIKRKYPDLTVIVDADRSRAIGYLCDLAEEQRPQLIVLDDGFQHRKVKADLNIVLTDYNRILTKDYLLPAGRLREPAGSIQRADMVILTKCPDDLAPIDLRAAKRDLALYPHQKLFFSKFLYGQGLKPLFSDQSPSAEVRSALAIAGIASPKLFFREIRTRFPSGTDRIYPDHHEFTDREICLLIQDWHELHRKDANAIVVCTEKDAMRLALRQSSFPQEMQERFYYLPVEVKLMFDQEKVFVDRLLGVIQHKKLEHHHHHH | not soluble
MEPKVYKPPISKAIGLVVGSVLPVNPRDLEKMMRRLGIKVEQLSADEARIVLGSGETMVFRSPTVIVMRAKGQPPMVYLVGDYTVEKPREETAAEITEEDVALVAEQAGVSMEEARKALEESGGDIAEAILRLKGEE | not soluble
MGSDKIHHHHHHMLKNDQLDQWDRDNFFHPSTHLAQHARGESANRVIKTASGVFIEDRDGTKLLDAFAGLYCVNVGYGRQEIAEAIADQARELAYYHSYVGHGTEASITLAKMILDRAPKNMSKVYFGLGGSDANETNVKLIWYYNNILGRPEKKKIISRWRGYHGSGLVTGSLTGLELFHKKFDLPVEQVIHTEAPYYFRREDLNQTEEQFVAHCVAELEALIEREGADTIAAFIGEPILGTGGIVPPPAGYWEAIQTVLNKHDILLVADEVVTGFGRLGTMFGSDHYGLEPDIITIAKGLTSAYAPLSGSIVSDKVWKVLEQGTDENGPIGHGWTYSAHPIGAAAGVANLKLLDELNLVSNAGEVGAYLNATMAEALSQHANVGDVRGEGLLCAVEFVKDRDSRTFFDAADKIGPQISAKLLEQDKIIARAMPQGDILGFAPPFCLTRAEADQVVEGTLRAVKAVLG | not soluble
ESIYIQSPYFIPDQAFLDSIKIAALGGVDVNIMVPNKRDHPFVYWATLKNVASLLEAGVNVYHYDNGFLHSKTLVIDDEVASVGTANMDNRSFTLNFEVNAFIYDEGVARSLKQAFINDMKLSNKLTSEEYAKR | not soluble
MSYYHHHHHHDYDIPTTENLTFQGAMEPTSSLNRGDRKKGSSLVTGSEVQSQSNGASCFITTDSEKSLVSRQASQVEQIELRTYVFLDSLQPQLAAYMGTVSRGFLPIPGDSCLWMEVSPGMAVHRVTDIALKASNVRLGQMIVERAFGSLALYHKDQSTVLHSGDVVLDAIGSEVRKRTKPSTSWTEVICAITPDHAVLINRQNRSGSMIQSGMSMFILETEPAGYVLKAANEAEKSANITIIDVKAVGAFGRLTLAGKEGDVEEAAAAAIRAIDQISNY | soluble
MGSDKIHHHHHHMTVEPLHILHLISTSGLFGAERVLLELASQSRSLGMHVTVAALKNSRNPNTELAEAARGAGLPTLVVPCGGRFDAGVVGILTEEIRKSGTQIIHSHNYKSNYYARQAAELSGARWIVTNHGRRAGFKLFLYALLDAMLVRKADRVVAVSPKIADRLAVLGIGRDGLSVIDNGVDFSRFESLPTKADAGNVLGVAGSSYVIGTVGALTEEKGHRHLLQAVKSVRKSIPNVVCVVVGDGPERRRLEQLAREEGIEQTAIFTGKRDDVPSILPRFDLFVLPSLSEGLPMALLEAQAAKVPAIATNVGAIATVINNGVTGVVVSPGDVPALAEAIIRSHDEADKARCMALKGYERVKVHYSADTMAQRYIEIYRGMIGAGGAIG | not soluble
MKFYNREKELNYLKTYCQLDPNSILFVYGPKSSGKSTVMRRVIKELEDSNIVFFYYNLRKYATYSKEEFLRVFFEKSEKKYLLNKLELNLGVFKFGVEENFDFNNLKLNDVFAKINESINAVVEDGKKPVLIIDELQKLKNIYFNGGKSLLNELFNLFVSLTKMEHLCHVICLTSDTLFIEEIYQSSTLENTSKYYLIDWLRKGTIRNILKEEGFSEEEINYCLDYLSLPYEIVDLIENKKLGLSVEETIRQWINIEKDKIKYLIDTTDLDEEELYKVLSKFKDKIKISYEKEVKKEEMKYFKFLIKNEILFYDVINGIIKPTSVKKWYAIREILK | not soluble
